From US6551840B2, “Method of screening TGF-β-inhibiting substances” (Chugai Seiyaku Kabushiki Kaisha, priority 1997, dated 2003)

Key:
Mv1Lu cell [1] = settings: Yamaguchi K. et al., (1995) Science 270, 2008-2011; cited from earlier work
Mv1Lu cell [2] = assay: PAI-1 ELISA in culture supernatant of Mv1Lu cells with or without TGF-β1; assay type: cell-based, mink; settings: Mv1Lu cells with forced expression; 10 ng/ml TGF-β1, 24 hours; control cells about 16-fold
Description: Accordingly, TAK1DN was subjected to forced expression in the Mv1Lu cell to investigate the effects of TGF-β stimulation on PAI-1 expression. The TAK1DN expression vector used was the above-mentioned TAK1DN, and the TAK1 polypeptide mutant TAK1-K63W expression vector was constructed by inserting a gene (Yamaguchi K. et al., (1995) Science 270, 2008-2011) encoding the TAK1 polypeptide mutant TAK1-K63W in which the lysine residue at position 63 has been replaced with the tryptophan residue at the EcoRI and NotI restriction enzyme site of pCOS1 to give pTAK1K63W.
The Mv1Lu cells into which pTAK1Dn had been introduced (Mv/DN2), the cells into which pTAK1K63W had been introduced (Mv/KN7), and the control cells into which pCOS1 containing no inserted genes (Mv/NEO) had been introduced were each incubated in a low-serum medium (MEM medium containing 0.2% FBS; manufactured by GIBCO-BRL) with or without 10 ng/ml of TGF-β1 for 24 hours. The amount of PAI-1 in the culture supernatant was determined using the PAI-1 Quantative ELISA (manufactured by CALBIOCHEM).

B1: TAK1-K63W: catalytically inactive TAK1 polypeptide mutant in which the lysine residue at position 63 has been replaced with the tryptophan residue (protein, UniProt O43318 1-606, looked up, variant K63W)
Mitogen-activated protein …: MSTASAASSSSSSSAGEMIEAPSQVLNFEEIDYKEIEVEEVVGRGAFGVVCKAKWRAKDVAIWQIESESERKAFIVELRQLSRVNHPNIVKLYGACLNPVCLVMEYAEGGSLYNVLHGAEPLPYYTAAHAMSWCLQCSQGVAYLHSMQPKALIHRDLKPPNLLLVAGGTVLKICDFGTACDIQTHMTNNKGSAAWMAPEVFEGSNYSEKCDVFSWGIILWEVITRRKPFDEIGGPAFRIMWAVHNGTRPPLIKNLPKPIESLMTRCWSKDPSQRPSMEEIVKIMTHLMRYFPGADEPLQYPCQYSDEGQSNSATSTGSFMDIASTNTSNKSDTNMEQVPATNDTIKRLESKLLKNQAKQQSESGRLSLGASRGSSVESLPPTSEGKRMSADMSEIEARIAATTAYSKPKRGHRKTASFGNILDVPEIVISGNGQPRRRSIQDLTVTGTEPGQVSSRSSSPSVRMITTSGPTSEKPTRSHPWTPDDSTDTNGSDNSIPMAYLTLDHQLQPLAPCPNSKESMAVFEQHCKMAQEYMKVQTEIALLLQRKQELVAELDQDEKDQQNTSRLVQEHKKLLDENKSLSTYYQQCKKQLEVIRSQQQKRQGTS
Mv1Lu cell [1]
  effect of forced expression on PAI-1 expression stimulated by TGF-β: PAI-1 expression is inhibited
Mv1Lu cell [2]
  increase in PAI-1 in the culture supernatant by TGF-β1 addition: about 6.5 fold
